For one experiment, the target named is CTLA-4-His protein (UniProt P16410). Description: SPR, antibody captured by Fc, CTLA-4-His as analyte. A general note: SPR reads the build-up and loss of mass on a sensor chip optically.
The target in experiment [1] is biotin-labeled hCTLA-4/Fc protein (UniProt P16410). The experiment can be described thus: FACS competition, biotin hCTLA-4-Fc on CHO cells expressing human B7-1.
Sequence of biotin-labeled hCTLA-4/Fc protein (P16410 37-161): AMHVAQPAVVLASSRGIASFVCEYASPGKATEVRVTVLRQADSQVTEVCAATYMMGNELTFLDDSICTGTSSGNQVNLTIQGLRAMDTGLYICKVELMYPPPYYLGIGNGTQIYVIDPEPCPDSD

Sequence of CTLA-4-His protein (P16410 37-161 limits assumed): as the sequence (P16410 37-161) above

The Kd is a measure of binding affinity in units of concentration. Usually IC50 stands for the concentration that inhibits the measured activity by half. Lower therefore signals greater potency in that assay. In the experiment with CTLA-4-His protein, ipilimumab (YERVOY®) (antibody) gave a Kd of 17.3 nM. In addition, the IC50 in experiment [1] stood at 8.5 nM.

For the origin of these results see US20190233519A1.
